These results are taken from patent publication US20160109459A1, “Compositions And Methods For Heparan Sulfate As A Biomarker For Transplant Rejection” (Duke University, priority 2012, published 2016).

The target of the experiment is T1, human TLR4 (Homo sapiens, UniProt O00206).
T1 construct: expressed in transfected cells; host or cells: HEK 293 (gift from Dr. Michael Fessler, NIEHS)
Briefly: IL-8 production by ELISA in HEK TLR4-MD2-CD14 cells. The format is cell-based. As to conditions: HS pre-treated with heparanase.

T1 sequence (O00206 24-839): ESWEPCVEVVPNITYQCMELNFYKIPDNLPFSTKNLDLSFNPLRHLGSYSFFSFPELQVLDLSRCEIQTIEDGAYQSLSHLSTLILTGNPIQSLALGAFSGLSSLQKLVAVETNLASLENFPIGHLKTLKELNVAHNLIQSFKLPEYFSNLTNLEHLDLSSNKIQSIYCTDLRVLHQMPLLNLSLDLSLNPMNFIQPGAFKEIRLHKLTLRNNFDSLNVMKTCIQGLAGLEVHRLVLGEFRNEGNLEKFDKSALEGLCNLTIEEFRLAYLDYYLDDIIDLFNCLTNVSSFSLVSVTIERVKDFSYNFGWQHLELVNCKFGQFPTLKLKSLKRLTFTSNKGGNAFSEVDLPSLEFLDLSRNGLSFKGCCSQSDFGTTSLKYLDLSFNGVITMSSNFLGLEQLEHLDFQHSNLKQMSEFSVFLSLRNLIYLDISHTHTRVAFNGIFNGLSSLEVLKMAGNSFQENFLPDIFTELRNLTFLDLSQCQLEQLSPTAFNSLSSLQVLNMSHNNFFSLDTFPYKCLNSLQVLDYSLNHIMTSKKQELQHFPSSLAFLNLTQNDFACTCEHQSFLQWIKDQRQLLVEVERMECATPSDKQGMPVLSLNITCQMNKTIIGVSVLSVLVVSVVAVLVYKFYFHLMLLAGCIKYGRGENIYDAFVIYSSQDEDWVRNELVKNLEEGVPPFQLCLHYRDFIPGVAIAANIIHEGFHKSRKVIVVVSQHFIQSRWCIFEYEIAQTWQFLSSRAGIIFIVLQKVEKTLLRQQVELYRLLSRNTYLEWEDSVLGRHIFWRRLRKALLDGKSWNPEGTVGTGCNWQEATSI
T1 sequence (Q9Y6Y9 17-160 partner limits assumed): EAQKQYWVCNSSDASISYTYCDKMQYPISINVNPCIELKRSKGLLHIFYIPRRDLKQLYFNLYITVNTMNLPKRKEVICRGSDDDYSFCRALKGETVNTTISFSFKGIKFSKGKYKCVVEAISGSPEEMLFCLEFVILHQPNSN
Procedure: HEK cell lines stably expressing CD14 and MD2 alone (HEK MD2-CD14), or co-expressed with human TLR2 (HEK TLR2-MD2-CD14) or human TLR4 (HEK TLR4-MD2-CD14) were transfected with a plasmid encoding firefly luciferase (F) under control of the NF-κB promoter along with a plasmid expressing Renilla luciferase (R) under control of the thymidine kinase promoter as a transfection control. Cell lines were cultured for 6 hours with media alone, LPS (100 ng/mL), HS (100 μg/mL), or Pam3CSK4 (2 μg/mL). […] FIG. 5B is a graph showing results supernatants analyzed for IL-8 production by ELISA. […] Experiments were performed in triplicate or quadruplicate. Results are representative of two to three independent experiments.
HEK 293 cell lines co-expressing human CD14, MD2 and TLR4 or TLR2 were a kind gift from Dr. Michael Fessler (NIEHS, Research Triangle Park, N.C., USA). […]
Thus, to determine whether if TLR4 was sufficient for HS activity, the ability of HS to activate human epithelial kidney (HEK) cell lines stably transfected to express human TLR4 or human TLR2 in addition to the co-receptors CD14 and MD2 was tested. […] The ratio of luminescence produced by firefly luciferase to Renilla luciferase (F/R) was then measured in response to media alone, LPS, HS, and Pam3CSK4. The production of IL-8, which is downstream of NF-κB activation, by ELISA was also measured. […]

B1: Heparanase: heparinase III from Flavobacterium heparinum (Sigma), enzyme that degrades heparan sulfate (protein, UniProt Q59289 25-659, looked up)
Heparin-sulfate lyase: QSSSITRKDFDHINLEYSGLEKVNKAVAAGNYDDAAKALLAYYREKSKAREPDFSNAEKPADIRQPIDKVTREMADKALVHQFQPHKGYGYFDYGKDINWQMWPVKDNEVRWQLHRVKWWQAMALVYHATGDEKYAREWVYQYSDWARKNPLGLSQDNDKFVWRPLEVSDRVQSLPPTFSLFVNSPAFTPAFLMEFLNSYHQQADYLSTHYAEQGNHRLFEAQRNLFAGVSFPEFKDSPRWRQTGISVLNTEIKKQVYADGMQFELSPIYHVAAIDIFLKAYGSAKRVNLEKEFPQSYVQTVENMIMALISISLPDYNTPMFGDSWITDKNFRMAQFASWARVFPANQAIKYFATDGKQGKAPNFLSKALSNAGFYTFRSGWDKNATVMVLKASPPGEFHAQPDNGTFELFIKGRNFTPDAGVFVYSGDEAIMKLRNWYRQTRIHSTLTLDNQNMVITKARQNKWETGNNLDVLTYTNPSYPNLDHQRSVLFINKKYFLVIDRAIGEATGNLGVHWQLKEDSNPVFDKTKNRVYTTYRDGNNLMIQSLNADRTSLNEEEGKVSYVYNKELKRPAFVFEKPKKNAGTQNFVSIVYPYDGQKAPEISIRENKGNDFEKGKLNLTLTINGKQQLVLVP
On to B1, for which the “effect of pre-treatment on HS stimulation of IL-8 expression” value was “significantly reduced”.
